{"source": "paper PMC5750232", "about": "“RAD54 N-terminal domain is a DNA sensor that couples ATP hydrolysis with branch migration of Holliday junctions” (Nature Communications, 2018)", "key": {"[1]": {"molecular_target": "T1, RAD54 156-747 (human, UniProt Q92698 156-747)", "T1 sequence": "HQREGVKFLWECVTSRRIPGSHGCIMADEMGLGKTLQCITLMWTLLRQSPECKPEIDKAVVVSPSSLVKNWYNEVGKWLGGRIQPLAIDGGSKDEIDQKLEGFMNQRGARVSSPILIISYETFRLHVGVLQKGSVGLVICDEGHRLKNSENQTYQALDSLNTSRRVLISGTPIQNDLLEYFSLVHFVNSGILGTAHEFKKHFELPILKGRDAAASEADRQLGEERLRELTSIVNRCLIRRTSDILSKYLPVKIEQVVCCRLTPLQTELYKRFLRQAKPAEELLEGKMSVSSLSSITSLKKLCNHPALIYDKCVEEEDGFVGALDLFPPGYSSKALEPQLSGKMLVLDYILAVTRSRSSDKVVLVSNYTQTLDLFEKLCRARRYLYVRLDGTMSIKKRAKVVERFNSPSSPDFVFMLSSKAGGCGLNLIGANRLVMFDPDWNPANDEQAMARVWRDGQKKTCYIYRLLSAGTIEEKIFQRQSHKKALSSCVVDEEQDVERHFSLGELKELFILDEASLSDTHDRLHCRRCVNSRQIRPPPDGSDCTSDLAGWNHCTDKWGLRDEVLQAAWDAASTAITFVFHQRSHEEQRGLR", "assay": "competition EMSA", "conditions": "vs 30 nM 32P-PX junction, 100 nM protein, 5 mM Mg2+, 2 mM ATP, 25 mM Tris-acetate pH 7.5, 5 mM Mg acetate, 100 ug/ml BSA, 2 mM DTT, 10% glycerol, 4 C, 45 min, 30 nM PX junction, 6% native PAGE in 0.25x TBE, scale: fold excess of competitor giving 50% dissociation of PX complexes"}, "[2]": {"molecular_target": "T2, RAD54 1-142 (NTD) (human, UniProt Q92698 1-142)", "T2 sequence": "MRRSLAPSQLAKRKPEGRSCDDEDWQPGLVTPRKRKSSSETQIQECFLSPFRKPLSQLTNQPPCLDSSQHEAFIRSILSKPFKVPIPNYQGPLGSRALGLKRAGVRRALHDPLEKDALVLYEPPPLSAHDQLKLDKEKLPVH", "assay": "competition EMSA", "conditions": "vs 30 nM 32P-PX junction, 300 nM protein, 5 mM Mg2+, 2 mM ATP, 25 mM Tris-acetate pH 7.5, 5 mM Mg acetate, 100 ug/ml BSA, 2 mM DTT, 10% glycerol, 4 C, 45 min, 30 nM PX junction, 6% native PAGE in 0.25x TBE, scale: fold excess, PX complexes stable at 150-200-fold excess of ss- or dsDNA"}, "[3]": {"molecular_target": "T2, RAD54 1-142 (NTD)", "assay": "competition EMSA; vs 30 nM 32P-PX junction; 300 nM protein; 5 mM Mg2+, 2 mM ATP; 25 mM Tris-acetate pH 7.5, 5 mM Mg acetate, 100 ug/ml BSA, 2 mM DTT, 2 mM ATP, 10% glycerol, 4 C, 45 min; 30 nM PX junction; 6% native PAGE in 0.25x TBE", "conditions": "protein: recombinant; tags: Sumo-His, cleaved; four-way junction, 4 strands"}, "[4]": {"molecular_target": "T2, RAD54 1-142 (NTD)", "assay": "EMSA; distinct complexes from 0.1 uM protein; 5 mM Mg2+, 2 mM ATP; 25 mM Tris-acetate pH 7.5, 5 mM Mg acetate, 100 ug/ml BSA, 2 mM DTT, 2 mM ATP, 10% glycerol, 4 C, 45 min; 30 nM PX junction; 6% native PAGE in 0.25x TBE", "conditions": "protein: recombinant; tags: Sumo-His, cleaved; partial X junction with one ssDNA arm, 4 strands"}, "[5]": {"molecular_target": "T1, RAD54 156-747", "assay": "EMSA; 100 nM protein; 5 mM Mg2+, 2 mM ATP; 25 mM Tris-acetate pH 7.5, 5 mM Mg acetate, 100 ug/ml BSA, 2 mM DTT, 2 mM ATP, 10% glycerol, 4 C, 45 min; 30 nM PX junction; 6% native PAGE in 0.25x TBE", "conditions": "protein: recombinant; tags: Sumo-His, cleaved; partial X junction with one ssDNA arm, 4 strands"}, "[6]": {"molecular_target": "the molecule itself", "assay": "cross-linking; BMH (25 µM) cross-linking of the protein (1.2 µM) without DNA; 20 mM HEPES-KOH pH 7.5, 5 mM MgCl2, 5 mM EDTA, 40 mM KCl, 25 °C; 15% SDS-PAGE, silver staining"}}}
{"molecule": "ssDNA (oligo 2)", "values": [{"measurement": "binding signal", "setting": "[1]", "result": 4}, {"measurement": "binding signal", "setting": "[2]", "result": "> 150"}]}
{"molecule": "dsDNA (oligos 1/2)", "values": [{"measurement": "binding signal", "setting": "[2]", "result": "> 150"}]}
{"molecule": "X-junction (174/175/176/177) (structured_DNA) DNA 1: GACGCTGCCGAATTCTACCAGTGCCTTGCTAGGACATCTTTGCCCACCTGCAGGTTCACCC DNA 2: TGGGTGAACCTGCAGGTGGGCAAAGATGTCCTAGCAATGTAATCGTCAAGCTTTATGCCGTT DNA 3: CAACGGCATAAAGCTTGACGATTACATTGCTAGGACATGCTGTCTAGAGGATCCGACTATCGA DNA 4: ATCGATAGTCGGATCCTCTAGACAGCATGTCCTAGCAAGGCACTGGTAGAATTCGGCAGCGT", "values": [{"measurement": "binding signal", "setting": "[3]", "result": "~6 fold preference for PX junction over HJ (X-junction)"}]}
{"molecule": "non-mobile PX junction (174/175/176/181) (structured_DNA) DNA 1: GACGCTGCCGAATTCTACCAGTGCCTTGCTAGGACATCTTTGCCCACCTGCAGGTTCACCC DNA 2: TGGGTGAACCTGCAGGTGGGCAAAGATGTCCTAGCAATGTAATCGTCAAGCTTTATGCCGTT DNA 3: CAACGGCATAAAGCTTGACGATTACATTGCTAGGACATGCTGTCTAGAGGATCCGACTATCGA DNA 4: TCGATAGTCGGATCCTCTAGACAGC", "values": [{"measurement": "binding result", "setting": "[4]", "result": "binds"}, {"measurement": "binding result", "setting": "[5]", "result": "binds"}]}
{"molecule": "RAD54_(1–142) NTD (domain or fragment, human, UniProt Q92698 1-142, looked up, cloned in pETHSUL; Sumo-His tag cleaved off by Sumo hydrolase; also called RAD54 NTD; source: E. coli Rosetta 2 (DE3), purified (HiTrap Ni2+, Sephacryl S-200 HR, Resource S)) MRRSLAPSQLAKRKPEGRSCDDEDWQPGLVTPRKRKSSSETQIQECFLSPFRKPLSQLTNQPPCLDSSQHEAFIRSILSKPFKVPIPNYQGPLGSRALGLKRAGVRRALHDPLEKDALVLYEPPPLSAHDQLKLDKEKLPVH", "values": [{"measurement": "stoichiometry N", "setting": "[6]", "result": 2}]}
{"molecule": "RAD54_(1–142) ^S49E (domain or fragment, human, UniProt Q92698 1-142, looked up, source: E. coli Rosetta 2 (DE3), purified (HiTrap Ni2+, Sephacryl S-200 HR, Resource S)) MRRSLAPSQLAKRKPEGRSCDDEDWQPGLVTPRKRKSSSETQIQECFLEPFRKPLSQLTNQPPCLDSSQHEAFIRSILSKPFKVPIPNYQGPLGSRALGLKRAGVRRALHDPLEKDALVLYEPPPLSAHDQLKLDKEKLPVH", "values": [{"measurement": "stoichiometry N", "setting": "[6]", "result": 2}]}
{"molecule": "RAD54_(1–142) ^33AAAA36 (domain or fragment, human, UniProt Q92698 1-142, looked up, source: E. coli Rosetta 2 (DE3), purified (HiTrap Ni2+, Sephacryl S-200 HR, Resource S)) MRRSLAPSQLAKRKPEGRSCDDEDWQPGLVTPAAAASSSETQIQECFLSPFRKPLSQLTNQPPCLDSSQHEAFIRSILSKPFKVPIPNYQGPLGSRALGLKRAGVRRALHDPLEKDALVLYEPPPLSAHDQLKLDKEKLPVH", "values": [{"measurement": "stoichiometry N", "setting": "[6]", "result": 2}]}
